Source: the Immune Epitope Database (IEDB)

molecular target: HLA-A*02:01; experiment: IEDB peptide-MHC binding, purified MHC/competitive/radioactivity; ≥ and ≤ were set here for values at or beyond the usual limits of such assays; settings: source organism: Bordetella pertussis

Row | Sequence | IC50 [µM]
1 | VKLGGVYEA | 9.59
2 | TLSSAHGNV | 48.6
3 | IIKDAPPGA | 15.4
4 | EGGKLRGKD | ≥ 78.1
5 | IIQEFAADL | 4.15

molecular target: HLA-B*53:01; experiment: as above; settings: source organism: Bordetella pertussis

Row | Sequence | IC50 [µM]
6 | HANHYGTRI | 52.1
7 | FPTRTTAPG | 0.894
8 | TAPVTSPAW | 4.36

molecular target: HLA-B*35:01; experiment: as above; settings: source organism: Bordetella pertussis

Row | Sequence | IC50 [µM]
9 | LAGSGLFRM | 0.767
10 | ILAGALATY | 4.29
11 | MAPVMGACM | 5
12 | GEAMVLVYY | 36.4

molecular target: HLA-B*57:01; experiment: as above; settings: source organism: Bordetella pertussis

Row | Sequence | IC50 [µM]
13 | RSGARATSL | 21.9
14 | SVKVAKKLF | ≥ 70.4
15 | AARVAGDNY | 32.3
16 | KATVTTVQV | 35.2
17 | RARRALRQD | 13.5
18 | RRFTHADGW | 55.9

molecular target: HLA-B*07:02; experiment: as above; settings: source organism: Bordetella pertussis

Row | Sequence | IC50 [µM]
19 | MPKAPELDL | 21
20 | RPSVNGGRI | 0.348

molecular target: HLA-B*44:03; experiment: as above; settings: source organism: Bordetella pertussis

Row | Sequence | IC50 [µM]
21 | AQVTVAGRY | 3.25
22 | RETFCITTI | 0.214
23 | AEIAFYPKE | 0.48
24 | TEAQGVQVR | 19.9
